Results as given in PMC7949082, “Mutant BIN1-Dynamin 2 complexes dysregulate membrane remodeling in the pathogenesis of centronuclear myopathy” (The Journal of Biological Chemistry, 2020).

Biological target: the molecule itself
Test: electron microscopy; purified dynamin 2 on lipid nanotubes, in the absence of GTP

B1: purified recombinant wild-type human dynamin 2 (His-tagged) (enzyme, UniProt P50570-1 1-870, looked up)
chain: MGNRGMEELIPLVNKLQDAFSSIGQSCHLDLPQIAVVGGQSAGKSSVLENFVGRDFLPRGSGIVTRRPLILQLIFSKTEHAEFLHCKSKKFTDFDEVRQEIEAETDRVTGTNKGISPVPINLRVYSPHVLNLTLIDLPGITKVPVGDQPPDIEYQIKDMILQFISRESSLILAVTPANMDLANSDALKLAKEVDPQGLRTIGVITKLDLMDEGTDARDVLENKLLPLRRGYIGVVNRSQKDIEGKKDIRAALAAERKFFLSHPAYRHMADRMGTPHLQKTLNQQLTNHIRESLPALRSKLQSQLLSLEKEVEEYKNFRPDDPTRKTKALLQMVQQFGVDFEKRIEGSGDQVDTLELSGGARINRIFHERFPFELVKMEFDEKDLRREISYAIKNIHGVRTGLFTPDLAFEAIVKKQVVKLKEPCLKCVDLVIQELINTVRQCTSKLSSYPRLREETERIVTTYIREREGRTKDQILLLIDIEQSYINTNHEDFIGFANAQQRSTQLNKKRAIPNQGEILVIRRGWLTINNISLMKGGSKEYWFVLTAESLSWYKDEEEKEKKYMLPLDNLKIRDVEKGFMSNKHVFAIFNTEQRNVYKDLRQIELACDSQEDVDSWKASFLRAGVYPEKDQAENEDGAQENTFSMDPQLERQVETIRNLVDSYVAIINKSIRDLMPKTIMHLMINNTKAFIHHELLAYLYSSADQSSLMEESADQAQRRDDMLRMYHALKEALNIIGDISTSTVSTPVPPPVDDTWLQSASSHSPTPQRRPVSSIHPPGRPPAVRGPTPGPPLIPVPVGAAASFSAPPIPSRPGPQSVFANSDLFPAPPQIPSRPVRIPPGIPPGVPSRRPPAAPSRPTIIRPAEPSLLD
notes: human dynamin 2 (NM_001005360), wild type, from the same Entry clone as the mammalian constructs; The vector is named pET15b in one paragraph and pET23b in another; no removal of the His tag is told; also called Dynamin 2 WT; DNM2WT
Question: Does B1 bind?
Answer: Result: binds
